# In article PMC12326980:
# Columns and labels:
# Assay in all cases: purified protein
# Conditions in all cases: 10 mM HEPES pH 7.5, 200 mM NaCl, 15 µM ZnSO4, 50 µg/mL BSA, 30°C
# [1] = system: CC(C)(O/N=C(\C(=O)N[C@@H]1C(=O)N2C(C(=O)[O-])=C(C[n+]3ccccc3)CS[C@H]12)c1csc(N)n1)C(=O)O
# [2] = system: CCN1CCN(C(=O)N[C@@H](C(=O)N[C@@H]2C(=O)N3[C@@H]2SC(C)(C)[C@@H]3C(=O)O)c2ccccc2)C(=O)C1=O
# [3] = system: C[C@@H](O)[C@H]1C(=O)N2C(C(=O)O)=C(SCCN=CN)C[C@H]12
# [4] = system: CO/N=C(\C(=O)N[C@@H]1C(=O)N2C(C(=O)O)=C(COC(C)=O)CS[C@H]12)c1csc(N)n1
# [5] = system: CO/N=C(\C(=O)N[C@@H]1C(=O)N2C(C(=O)[O-])=C(C[N+]3(C)CCCC3)CS[C@H]12)c1csc(N)n1
Substance,Km [1],kcat [1],kcat/Km [1],Km [2],kcat [2],kcat/Km [2],Km [3],kcat [3],kcat/Km [3],Km [4],kcat [4],kcat/Km [4],Km [5],kcat [5],kcat/Km [5]
CJO-1 (Chryseobacterium joostei),"1,000 ± 400 µM",110 ± 30 s⁻¹,100000 ± 60000 M⁻¹ s⁻¹,"1,900 ± 300 µM",30 ± 4 s⁻¹,16000 ± 5000 M⁻¹ s⁻¹,"2,700 ± 500 µM",280 ± 40 s⁻¹,100000 ± 30000 M⁻¹ s⁻¹,126 ± 4 µM,528 ± 6 s⁻¹,4.2e+06 ± 200000 M⁻¹ s⁻¹,440 ± 60 µM,19 ± 2 s⁻¹,43000 ± 9000 M⁻¹ s⁻¹
CIM-2 (Chryseobacterium indologenes),"2,000 ± 300 µM",380 ± 50 s⁻¹,180000 ± 50000 M⁻¹ s⁻¹,"2,400 ± 500 µM",48 ± 7 s⁻¹,20000 ± 7000 M⁻¹ s⁻¹,"2,300 ± 300 µM",2000 ± 200 s⁻¹,900000 ± 200000 M⁻¹ s⁻¹,180 ± 20 µM,820 ± 30 s⁻¹,4.7e+06 ± 700000 M⁻¹ s⁻¹,700 ± 200 µM,28 ± 5 s⁻¹,40000 ± 20000 M⁻¹ s⁻¹
